Ends that are not written are not given here. * marks the point of attachment. Biotin = O=C1N[C@H]2[C@H](CS[C@H]2CCCCC(=O)*)N1
Experiments:
[1] = target: T1, His-tagged TamA (purified recombinant) (E. coli, UniProt P0ADE4 22-577); test: peptide or protein array
T1 sequence (looked up): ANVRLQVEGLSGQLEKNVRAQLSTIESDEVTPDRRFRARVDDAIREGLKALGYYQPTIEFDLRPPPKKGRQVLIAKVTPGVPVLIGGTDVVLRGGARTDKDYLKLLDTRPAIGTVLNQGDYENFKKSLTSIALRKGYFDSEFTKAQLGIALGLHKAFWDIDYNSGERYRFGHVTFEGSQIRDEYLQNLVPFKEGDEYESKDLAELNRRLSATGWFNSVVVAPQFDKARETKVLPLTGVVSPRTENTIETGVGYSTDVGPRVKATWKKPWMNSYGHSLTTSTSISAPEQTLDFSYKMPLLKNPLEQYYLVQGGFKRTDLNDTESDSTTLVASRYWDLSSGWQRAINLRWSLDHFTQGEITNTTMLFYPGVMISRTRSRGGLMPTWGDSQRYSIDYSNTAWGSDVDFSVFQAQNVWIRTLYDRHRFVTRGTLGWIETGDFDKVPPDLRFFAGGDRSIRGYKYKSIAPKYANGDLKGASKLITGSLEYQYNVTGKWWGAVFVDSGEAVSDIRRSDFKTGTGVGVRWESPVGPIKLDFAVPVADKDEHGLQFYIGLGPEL

[2] = target: His-tagged BamA (purified recombinant) (E. coli, UniProt P0A940 21-810); test: peptide or protein array
[3] = target: T1, His-tagged TamA (purified recombinant); test: cross-linking
[4] = target: the molecule itself; test: semi-native SDS-PAGE

| Binder | binding result [1] | binding result [2] | also measured |
| --- | --- | --- | --- |
| GGYGNANIGYSHSDDIKQSA [FimD peptide 23 (β-strand 23)] | binds | – | – |
| FDGINFRGAQLASDDNMLSA [FimD peptide 6 (β-strand 6), on the array] | binds | – | – |
| INAGLLNYNFSGNSVQNRSA [FimD peptide 1 (β-strand 1)] | – | binds | – |
| GGNSHYAYLNLQSGLNIGAA [FimD peptide 2 (β-strand 2)] | – | binds | – |
| Biotin-FDGINFRGAQLASDDNMLK [Biotin-FDGINFRGAQLASDDNMLK (FimD peptide 6 with N-terminal biotin and C-terminal lysine)] | – | – | binding result [3]: binds |
| His-tagged OmpF (natural protein, UniProt P02931 23-362, looked up) AEIYNKDGNKVDLYGKAVGLHYFSKGNGENSYGGNGDMTYARLGFKGETQINSDLTGYGQWEYNFQGNNSEGADAQTGNKTRLAFAGLKYADVGSFDYGRNYGVVYDALGYTDMLPEFGGDTAYSDDFFVGRVGGVATYRNSNFFGLVDGLNFAVQYLGKNERDTARRSNGDGVGGSISYEYEGFGIVGAYGAADRTNLQEAQPLGNGKKAEQWATGLKYDANNIYLAANYGETRNATPITNKFTNTSGFANKTQDVLLVAQYQFDFGLRPSIAYTKSKAKDVEGIGDVDLVNYFEVGATYYFNKNMSTYVDYIINQIDSDNKLGVGSDDTVAVGIVYQF | – | – | stoichiometry N [4]: 3 |

Reference: PMC5607099 (Molecular microbiology, 2017)
